Laboratory results from paper PMC2173515 (The Journal of Cell Biology, 2003).

Columns and labels:
Assay in all cases: co-IP
[1] = biological target: T1, Vps27 truncated at residue 617 (yeast, UniProt P40343 1-617)
T1 sequence: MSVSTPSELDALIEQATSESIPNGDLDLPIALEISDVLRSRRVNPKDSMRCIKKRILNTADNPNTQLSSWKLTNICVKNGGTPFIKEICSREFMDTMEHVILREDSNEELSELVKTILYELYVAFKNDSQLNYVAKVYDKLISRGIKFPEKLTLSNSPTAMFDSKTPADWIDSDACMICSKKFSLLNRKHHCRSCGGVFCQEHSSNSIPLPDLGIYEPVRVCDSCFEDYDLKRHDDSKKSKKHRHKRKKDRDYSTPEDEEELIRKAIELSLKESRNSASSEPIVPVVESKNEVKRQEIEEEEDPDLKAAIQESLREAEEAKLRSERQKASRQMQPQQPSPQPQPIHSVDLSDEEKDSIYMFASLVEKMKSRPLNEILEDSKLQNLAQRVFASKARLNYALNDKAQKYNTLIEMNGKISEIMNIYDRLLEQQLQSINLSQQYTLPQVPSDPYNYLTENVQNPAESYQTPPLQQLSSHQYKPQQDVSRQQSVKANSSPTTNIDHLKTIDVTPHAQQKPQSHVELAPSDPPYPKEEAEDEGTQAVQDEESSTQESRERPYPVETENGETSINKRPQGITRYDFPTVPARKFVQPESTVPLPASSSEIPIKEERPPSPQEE

[2] = biological target: T2, Vps27 truncated at residue 579 (yeast, UniProt P40343 1-579)
T2 sequence: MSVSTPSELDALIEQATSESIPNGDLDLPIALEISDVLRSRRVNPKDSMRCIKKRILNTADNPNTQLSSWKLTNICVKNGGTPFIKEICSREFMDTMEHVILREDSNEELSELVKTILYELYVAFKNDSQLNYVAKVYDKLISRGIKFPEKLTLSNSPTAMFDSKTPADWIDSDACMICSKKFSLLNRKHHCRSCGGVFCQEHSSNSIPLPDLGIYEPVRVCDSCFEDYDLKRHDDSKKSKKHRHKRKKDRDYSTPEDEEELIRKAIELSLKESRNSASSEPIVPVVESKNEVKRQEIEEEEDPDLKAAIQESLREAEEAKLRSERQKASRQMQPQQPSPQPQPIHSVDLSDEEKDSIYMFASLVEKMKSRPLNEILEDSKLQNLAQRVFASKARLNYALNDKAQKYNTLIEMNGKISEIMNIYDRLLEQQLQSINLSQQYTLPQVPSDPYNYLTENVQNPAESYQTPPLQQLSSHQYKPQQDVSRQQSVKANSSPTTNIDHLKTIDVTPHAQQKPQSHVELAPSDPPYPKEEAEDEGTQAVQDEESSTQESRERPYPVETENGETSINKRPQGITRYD

[3] = biological target: T3, Vps27 (full-length, wild type) (yeast, UniProt P40343 1-622)
T3 sequence: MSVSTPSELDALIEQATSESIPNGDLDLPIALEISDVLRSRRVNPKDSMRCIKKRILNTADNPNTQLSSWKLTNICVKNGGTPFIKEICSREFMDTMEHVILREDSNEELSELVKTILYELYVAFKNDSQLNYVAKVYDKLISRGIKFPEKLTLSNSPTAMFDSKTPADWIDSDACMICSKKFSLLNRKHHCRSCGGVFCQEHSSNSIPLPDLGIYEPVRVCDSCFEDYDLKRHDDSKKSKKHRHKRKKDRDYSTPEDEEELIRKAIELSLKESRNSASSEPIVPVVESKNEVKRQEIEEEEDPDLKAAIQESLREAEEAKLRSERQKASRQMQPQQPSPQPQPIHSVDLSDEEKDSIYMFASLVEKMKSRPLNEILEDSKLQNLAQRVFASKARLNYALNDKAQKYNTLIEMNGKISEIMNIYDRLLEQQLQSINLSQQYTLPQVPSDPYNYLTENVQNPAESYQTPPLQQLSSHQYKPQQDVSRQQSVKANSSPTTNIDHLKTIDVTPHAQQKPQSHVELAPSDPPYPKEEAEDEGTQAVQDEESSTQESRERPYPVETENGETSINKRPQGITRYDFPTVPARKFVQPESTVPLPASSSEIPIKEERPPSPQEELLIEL

[4] = biological target: T4, Vps27 truncated at residue 485 (yeast, UniProt P40343 1-485)
T4 sequence: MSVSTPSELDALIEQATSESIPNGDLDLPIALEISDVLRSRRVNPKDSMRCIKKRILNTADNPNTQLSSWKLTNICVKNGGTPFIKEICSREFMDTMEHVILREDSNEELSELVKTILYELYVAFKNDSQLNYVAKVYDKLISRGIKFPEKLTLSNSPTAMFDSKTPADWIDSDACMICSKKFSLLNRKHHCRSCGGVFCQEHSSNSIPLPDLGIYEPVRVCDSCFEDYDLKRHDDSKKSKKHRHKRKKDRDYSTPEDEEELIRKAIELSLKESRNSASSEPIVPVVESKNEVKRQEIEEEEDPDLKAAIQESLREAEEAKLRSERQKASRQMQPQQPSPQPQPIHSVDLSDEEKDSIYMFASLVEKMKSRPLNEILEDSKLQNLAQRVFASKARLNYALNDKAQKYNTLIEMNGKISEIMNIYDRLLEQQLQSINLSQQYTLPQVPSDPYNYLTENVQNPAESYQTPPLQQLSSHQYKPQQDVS

[5] = biological target: T5, Vps27 truncated at residue 524 (yeast, UniProt P40343 1-524)
T5 sequence: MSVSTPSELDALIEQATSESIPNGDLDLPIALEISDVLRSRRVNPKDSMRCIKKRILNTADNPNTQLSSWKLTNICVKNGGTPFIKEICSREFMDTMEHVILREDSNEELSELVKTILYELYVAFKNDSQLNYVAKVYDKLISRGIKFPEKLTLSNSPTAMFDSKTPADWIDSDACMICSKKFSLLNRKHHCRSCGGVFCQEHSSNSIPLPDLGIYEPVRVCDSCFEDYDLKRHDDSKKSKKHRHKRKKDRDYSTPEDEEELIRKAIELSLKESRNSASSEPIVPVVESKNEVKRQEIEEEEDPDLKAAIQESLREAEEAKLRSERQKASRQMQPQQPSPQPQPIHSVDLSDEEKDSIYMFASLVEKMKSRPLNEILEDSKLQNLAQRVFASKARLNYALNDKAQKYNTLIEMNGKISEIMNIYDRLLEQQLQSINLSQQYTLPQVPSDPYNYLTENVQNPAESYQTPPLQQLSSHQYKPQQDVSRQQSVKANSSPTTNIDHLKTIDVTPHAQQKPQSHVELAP

percent of Vps23 co-immunoprecipitated [1]: ~10%
percent of Vps23 co-immunoprecipitated [2]: ~10%
percent of Vps23 co-immunoprecipitated [3]: ~10%
percent of Vps23 co-immunoprecipitated [4]: ~10%
percent of Vps23 co-immunoprecipitated [5]: ~10%
B1: Vps23-HA (natural protein)
chain: MSANGKISVPEAVVNWLFKVIQPIYNDGRTTFHDSLALLDNFHSLRPRTRVFTHSDGTPQLLLSIYGTISTGEDGSSPHSIPVIMWVPSMYPVKPPFISINLENFDMNTISSSLPIQEYIDSNGWIALPILHCWDPAAMNLIMVVQELMSLLHEPPQDQAPSLPPKPNTQLQQEQNTPPLPPKPKSPHLKPPLPPPPPPQPASNALDLMDMDNTDISPTNHHEMLQNLQTVVNELYREDVDYVADKILTRQTVMQESIARFHEIIAIDKNHLRAVEQAIEQTMHSLNAQIDVLTANRAKVQQFSSTSHVDDEDVNSIAVAKTDGLNQLYNLVAQDYALTDTIECLSRMLHRGTIPLDTFVKQGRELARQQFLVRWHIQRITSPLS
